Experimental data published in US20240261333A1, “NOVEL TARGETS FOR ENHANCING ANTI-TUMOR IMMUNITY” (THE BROAD INSTITUTE, INC., priority 2021, published 2024).

What was measured:
SYNCRIP (human) = SYNCRIP (human) (UniProt O60506); assay: control IP with IgG, lysate of cells with N-FLAG B3GNT2, mass spectrometry
TPM3 (human) = TPM3 (human) (UniProt P06753); assay: as above
SERPINB3 (human) = SERPINB3 (human) (UniProt P29508); assay: as above
CHCHD3 (human) = CHCHD3 (human) (UniProt Q9NX63); assay: as above
Chain of CHCHD3 (human) (Q9NX63 2-227 limits assumed): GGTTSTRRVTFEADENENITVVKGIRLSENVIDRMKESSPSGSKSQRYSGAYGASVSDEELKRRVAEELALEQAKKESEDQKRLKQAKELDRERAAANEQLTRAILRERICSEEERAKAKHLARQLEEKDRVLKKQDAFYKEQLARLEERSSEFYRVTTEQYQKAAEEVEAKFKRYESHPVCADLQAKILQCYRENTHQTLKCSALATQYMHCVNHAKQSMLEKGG

CCT3 (human) = CCT3 (human) (UniProt P49368); assay: as above
RACK1 (human) = RACK1 (human) (UniProt P63244); assay: as above
RPS14 (human) = RPS14 (human) (UniProt P62263); assay: as above
DHX9 (human) = DHX9 (human) (UniProt Q08211); assay: as above
FLG (human) = FLG (human) (UniProt P20930); assay: as above
Chain of FLG (human) (P20930 whole entry): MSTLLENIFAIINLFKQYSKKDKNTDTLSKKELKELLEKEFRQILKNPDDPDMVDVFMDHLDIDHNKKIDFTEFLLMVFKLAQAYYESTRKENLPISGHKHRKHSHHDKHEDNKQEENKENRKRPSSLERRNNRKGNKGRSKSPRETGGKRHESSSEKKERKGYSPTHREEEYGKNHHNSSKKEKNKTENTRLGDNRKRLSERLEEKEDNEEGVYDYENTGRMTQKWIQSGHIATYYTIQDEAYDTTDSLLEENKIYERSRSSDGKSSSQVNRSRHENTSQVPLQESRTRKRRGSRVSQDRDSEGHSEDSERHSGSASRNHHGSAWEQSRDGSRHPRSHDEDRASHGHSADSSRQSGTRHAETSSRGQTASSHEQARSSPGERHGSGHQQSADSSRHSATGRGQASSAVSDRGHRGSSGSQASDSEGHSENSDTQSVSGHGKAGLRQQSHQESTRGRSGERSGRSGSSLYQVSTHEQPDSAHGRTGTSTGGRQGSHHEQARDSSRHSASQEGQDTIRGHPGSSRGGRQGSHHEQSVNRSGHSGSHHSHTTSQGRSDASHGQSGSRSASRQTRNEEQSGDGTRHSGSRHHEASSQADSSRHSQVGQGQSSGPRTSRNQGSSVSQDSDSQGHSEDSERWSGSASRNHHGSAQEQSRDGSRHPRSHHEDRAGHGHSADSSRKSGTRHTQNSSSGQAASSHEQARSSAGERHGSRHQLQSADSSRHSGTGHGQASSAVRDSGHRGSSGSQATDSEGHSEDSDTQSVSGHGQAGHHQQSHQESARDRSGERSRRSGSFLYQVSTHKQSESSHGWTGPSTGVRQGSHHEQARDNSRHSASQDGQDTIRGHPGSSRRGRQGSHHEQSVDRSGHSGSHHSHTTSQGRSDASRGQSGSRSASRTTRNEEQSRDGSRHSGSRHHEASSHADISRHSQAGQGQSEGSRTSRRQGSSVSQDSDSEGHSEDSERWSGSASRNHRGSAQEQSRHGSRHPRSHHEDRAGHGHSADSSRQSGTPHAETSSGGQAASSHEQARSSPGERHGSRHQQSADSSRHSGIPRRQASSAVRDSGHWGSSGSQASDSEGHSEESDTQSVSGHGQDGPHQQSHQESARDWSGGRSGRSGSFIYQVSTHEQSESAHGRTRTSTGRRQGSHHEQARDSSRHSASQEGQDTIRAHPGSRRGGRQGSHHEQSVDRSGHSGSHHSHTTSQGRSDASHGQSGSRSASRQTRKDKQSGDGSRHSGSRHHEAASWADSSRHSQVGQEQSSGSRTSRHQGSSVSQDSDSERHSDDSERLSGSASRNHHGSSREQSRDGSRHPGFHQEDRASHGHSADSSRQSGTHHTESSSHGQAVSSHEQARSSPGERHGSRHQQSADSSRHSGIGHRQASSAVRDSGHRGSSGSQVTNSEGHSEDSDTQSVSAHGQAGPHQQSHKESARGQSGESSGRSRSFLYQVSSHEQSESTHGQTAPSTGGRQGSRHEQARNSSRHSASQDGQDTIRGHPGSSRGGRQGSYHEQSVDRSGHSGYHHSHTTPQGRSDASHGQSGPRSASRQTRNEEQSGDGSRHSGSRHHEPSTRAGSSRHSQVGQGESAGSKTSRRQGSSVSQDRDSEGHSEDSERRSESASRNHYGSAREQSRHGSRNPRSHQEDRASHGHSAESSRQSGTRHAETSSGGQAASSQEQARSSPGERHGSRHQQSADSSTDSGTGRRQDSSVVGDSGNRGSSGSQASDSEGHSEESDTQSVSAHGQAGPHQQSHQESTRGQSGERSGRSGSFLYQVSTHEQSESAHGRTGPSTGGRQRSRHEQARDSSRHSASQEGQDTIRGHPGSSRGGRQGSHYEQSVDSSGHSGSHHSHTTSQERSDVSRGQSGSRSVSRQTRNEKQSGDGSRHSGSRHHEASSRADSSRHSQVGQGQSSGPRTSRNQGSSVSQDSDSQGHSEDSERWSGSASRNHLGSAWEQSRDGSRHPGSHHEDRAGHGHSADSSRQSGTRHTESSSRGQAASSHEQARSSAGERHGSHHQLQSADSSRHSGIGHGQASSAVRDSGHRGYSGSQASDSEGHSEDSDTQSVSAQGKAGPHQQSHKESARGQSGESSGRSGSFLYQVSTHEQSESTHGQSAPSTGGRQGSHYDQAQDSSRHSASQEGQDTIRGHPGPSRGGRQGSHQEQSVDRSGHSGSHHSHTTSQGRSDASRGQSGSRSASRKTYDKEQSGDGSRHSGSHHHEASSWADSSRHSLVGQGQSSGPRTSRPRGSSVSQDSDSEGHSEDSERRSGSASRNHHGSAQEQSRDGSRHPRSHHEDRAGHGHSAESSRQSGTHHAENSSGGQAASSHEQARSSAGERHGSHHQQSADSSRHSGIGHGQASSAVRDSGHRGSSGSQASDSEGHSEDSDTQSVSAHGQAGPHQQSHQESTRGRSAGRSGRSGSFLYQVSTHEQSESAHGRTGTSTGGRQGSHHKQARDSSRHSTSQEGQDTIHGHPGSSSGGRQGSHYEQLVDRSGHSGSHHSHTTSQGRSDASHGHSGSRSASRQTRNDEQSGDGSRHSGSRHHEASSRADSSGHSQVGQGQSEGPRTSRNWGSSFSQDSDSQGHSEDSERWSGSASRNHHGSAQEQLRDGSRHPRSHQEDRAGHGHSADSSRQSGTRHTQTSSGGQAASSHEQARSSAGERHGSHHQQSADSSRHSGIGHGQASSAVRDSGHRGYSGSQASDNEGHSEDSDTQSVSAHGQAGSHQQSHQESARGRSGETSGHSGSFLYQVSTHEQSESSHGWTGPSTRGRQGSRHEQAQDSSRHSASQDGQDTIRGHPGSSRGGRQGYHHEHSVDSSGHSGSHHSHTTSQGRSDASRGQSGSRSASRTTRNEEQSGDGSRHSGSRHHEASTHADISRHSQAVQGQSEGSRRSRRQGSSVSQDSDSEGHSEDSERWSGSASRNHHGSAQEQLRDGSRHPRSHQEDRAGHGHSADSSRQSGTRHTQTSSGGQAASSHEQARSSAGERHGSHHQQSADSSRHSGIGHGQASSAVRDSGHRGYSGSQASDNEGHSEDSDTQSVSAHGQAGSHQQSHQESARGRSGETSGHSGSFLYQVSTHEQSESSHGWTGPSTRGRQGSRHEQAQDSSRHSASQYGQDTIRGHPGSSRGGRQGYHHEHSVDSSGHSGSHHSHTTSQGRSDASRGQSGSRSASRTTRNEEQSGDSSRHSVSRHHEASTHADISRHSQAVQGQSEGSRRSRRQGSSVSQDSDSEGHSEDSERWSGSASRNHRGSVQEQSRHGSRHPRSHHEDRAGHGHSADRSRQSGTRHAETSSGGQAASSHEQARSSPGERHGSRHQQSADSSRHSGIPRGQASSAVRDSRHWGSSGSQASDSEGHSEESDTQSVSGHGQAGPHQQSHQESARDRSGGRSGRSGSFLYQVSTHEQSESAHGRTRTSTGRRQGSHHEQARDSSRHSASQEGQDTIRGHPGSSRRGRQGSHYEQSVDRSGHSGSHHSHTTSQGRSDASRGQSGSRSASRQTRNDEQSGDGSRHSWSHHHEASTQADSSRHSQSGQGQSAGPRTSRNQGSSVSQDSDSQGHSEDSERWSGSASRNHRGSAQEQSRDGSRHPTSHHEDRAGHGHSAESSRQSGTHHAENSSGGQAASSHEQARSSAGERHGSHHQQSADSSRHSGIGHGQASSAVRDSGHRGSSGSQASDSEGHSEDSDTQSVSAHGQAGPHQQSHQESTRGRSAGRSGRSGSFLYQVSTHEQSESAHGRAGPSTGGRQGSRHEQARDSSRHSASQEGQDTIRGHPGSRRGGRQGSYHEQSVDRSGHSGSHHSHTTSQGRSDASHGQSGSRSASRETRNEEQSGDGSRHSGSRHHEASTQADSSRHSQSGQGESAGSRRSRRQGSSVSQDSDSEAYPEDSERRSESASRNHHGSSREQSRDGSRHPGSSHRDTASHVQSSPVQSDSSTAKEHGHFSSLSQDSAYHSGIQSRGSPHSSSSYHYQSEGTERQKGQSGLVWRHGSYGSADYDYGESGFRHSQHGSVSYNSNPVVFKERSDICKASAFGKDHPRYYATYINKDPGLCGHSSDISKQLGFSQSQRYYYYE

TELO2 (human) = TELO2 (human) (UniProt Q9Y4R8); assay: as above
DDX1 (human) = DDX1 (human) (UniProt Q92499); assay: as above
TBL2 (human) = TBL2 (human) (UniProt Q9Y4P3); assay: as above
Chain of TBL2 (human) (Q9Y4P3 whole entry): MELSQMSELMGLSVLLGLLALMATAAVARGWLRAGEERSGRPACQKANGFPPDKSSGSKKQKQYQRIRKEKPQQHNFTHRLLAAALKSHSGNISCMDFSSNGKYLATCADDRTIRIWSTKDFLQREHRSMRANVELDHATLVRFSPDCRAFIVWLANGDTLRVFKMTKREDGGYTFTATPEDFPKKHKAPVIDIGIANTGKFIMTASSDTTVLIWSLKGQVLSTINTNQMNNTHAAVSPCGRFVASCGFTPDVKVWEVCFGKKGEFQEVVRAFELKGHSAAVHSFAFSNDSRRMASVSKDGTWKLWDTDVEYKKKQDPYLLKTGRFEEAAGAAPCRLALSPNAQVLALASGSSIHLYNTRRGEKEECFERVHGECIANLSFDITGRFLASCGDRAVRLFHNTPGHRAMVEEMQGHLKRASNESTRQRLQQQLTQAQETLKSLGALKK

RPL23 (human) = RPL23 (human) (UniProt P62829); assay: as above
GBF1 (human) = GBF1 (human) (UniProt Q92538); assay: as above
IL13RA2 (human) = IL13RA2 (human) (UniProt Q14627); assay: as above
RPL8 (human) = RPL8 (human) (UniProt P62917); assay: as above
KCTD5 (human) = KCTD5 (human) (UniProt Q9NXV2); assay: as above
Chain of KCTD5 (human) (Q9NXV2 2-234 limits assumed): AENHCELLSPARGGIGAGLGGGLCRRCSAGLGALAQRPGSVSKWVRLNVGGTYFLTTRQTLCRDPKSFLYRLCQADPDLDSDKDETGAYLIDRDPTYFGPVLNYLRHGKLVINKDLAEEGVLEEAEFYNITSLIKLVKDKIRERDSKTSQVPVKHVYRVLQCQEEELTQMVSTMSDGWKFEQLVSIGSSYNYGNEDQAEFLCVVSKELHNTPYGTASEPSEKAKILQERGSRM

PPFIBP1 (human) = PPFIBP1 (human) (UniProt Q86W92); assay: as above
YTHDF2 (human) = target: T1, YTHDF2 (human) (UniProt Q9Y5A9); assay: as above
T1 sequence (looked up): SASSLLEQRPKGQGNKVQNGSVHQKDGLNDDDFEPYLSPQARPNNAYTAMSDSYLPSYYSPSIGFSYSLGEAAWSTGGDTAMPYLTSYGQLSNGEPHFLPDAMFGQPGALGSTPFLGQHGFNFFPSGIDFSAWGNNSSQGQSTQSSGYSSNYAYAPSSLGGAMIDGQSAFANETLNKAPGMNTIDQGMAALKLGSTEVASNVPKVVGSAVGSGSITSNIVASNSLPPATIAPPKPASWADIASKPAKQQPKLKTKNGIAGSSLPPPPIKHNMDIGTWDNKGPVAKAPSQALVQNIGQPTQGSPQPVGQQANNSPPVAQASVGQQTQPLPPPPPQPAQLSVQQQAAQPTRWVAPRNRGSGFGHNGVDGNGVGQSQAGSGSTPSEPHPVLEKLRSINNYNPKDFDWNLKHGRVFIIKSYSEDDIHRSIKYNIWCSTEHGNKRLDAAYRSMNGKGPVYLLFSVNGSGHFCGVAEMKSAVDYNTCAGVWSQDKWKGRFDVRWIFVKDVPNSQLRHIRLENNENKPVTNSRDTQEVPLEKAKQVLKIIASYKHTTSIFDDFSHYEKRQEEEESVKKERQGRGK

HNRNPM (human) = HNRNPM (human) (UniProt P52272); assay: as above
EIF3A (human) = EIF3A (human) (UniProt Q14152); assay: as above
PKM (human) = PKM (human) (UniProt P14618); assay: as above
SYNM (human) = SYNM (human) (UniProt O15061); assay: as above
EMILIN1 (human) = EMILIN1 (human) (UniProt Q9Y6C2); assay: as above
GSN (human) = GSN (human) (UniProt P06396); assay: as above
SYNPO (human) = SYNPO (human) (UniProt Q8N3V7); assay: as above
RPL7 (human) = RPL7 (human) (UniProt P18124); assay: as above
CALML5 (human) = CALML5 (human) (UniProt Q9NZT1); assay: as above
Chain of CALML5 (human) (Q9NZT1 2-146 limits assumed): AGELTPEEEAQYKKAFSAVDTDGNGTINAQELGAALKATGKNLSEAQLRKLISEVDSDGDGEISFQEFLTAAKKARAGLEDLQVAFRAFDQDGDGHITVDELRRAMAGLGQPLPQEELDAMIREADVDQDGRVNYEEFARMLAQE

RHOT2 (human) = RHOT2 (human) (UniProt Q8IXI1); assay: as above
SSRP1 = SSRP1 (UniProt Q08945); assay: co-IP, IgG control, N-FLAG B3GNT2 cell lysate, mass spectrometry
MTDH = MTDH (UniProt Q86UE4); assay: as above
EMD = EMD (UniProt P50402); assay: as above

Substance: IgG control (Millipore Sigma 12-371) (antibody)
- co-IP mass spectrometry count (SYNCRIP (human)): 6
- co-IP mass spectrometry count (TPM3 (human)): 5
- co-IP mass spectrometry count (SERPINB3 (human)): 3
- co-IP mass spectrometry count (CHCHD3 (human)): 10
- co-IP mass spectrometry count (CCT3 (human)): 0
- co-IP mass spectrometry count (RACK1 (human)): 0
- co-IP mass spectrometry count (RPS14 (human)): 9
- co-IP mass spectrometry count (DHX9 (human)): 0
- co-IP mass spectrometry count (FLG (human)): 20
- co-IP mass spectrometry count (TELO2 (human)): 0
- co-IP mass spectrometry count (DDX1 (human)): 2
- co-IP mass spectrometry count (TBL2 (human)): 0
- co-IP mass spectrometry count (RPL23 (human)): 5
- co-IP mass spectrometry count (GBF1 (human)): 0
- co-IP mass spectrometry count (IL13RA2 (human)): 0
- co-IP mass spectrometry count (RPL8 (human)): 3
- co-IP mass spectrometry count (KCTD5 (human)): 0
- co-IP mass spectrometry count (PPFIBP1 (human)): 0
- co-IP mass spectrometry count (YTHDF2 (human)): 4
- co-IP mass spectrometry count (HNRNPM (human)): 5
- co-IP mass spectrometry count (EIF3A (human)): 3
- co-IP mass spectrometry count (PKM (human)): 2
- co-IP mass spectrometry count (SYNM (human)): 5
- co-IP mass spectrometry count (EMILIN1 (human)): 0
- co-IP mass spectrometry count (GSN (human)): 0
- co-IP mass spectrometry count (SYNPO (human)): 4
- co-IP mass spectrometry count (RPL7 (human)): 5
- co-IP mass spectrometry count (CALML5 (human)): 0
- co-IP mass spectrometry count (RHOT2 (human)): 0
- co-IP mass spectrometry count (SSRP1): 0
- co-IP mass spectrometry count (MTDH): 0
- co-IP mass spectrometry count (EMD): 0
